“Also recorded” adds a separate entry of the source. No end group written: not given here. B4 T2‑OMe = not defined here
Experiments:
GLP-1 receptor = GLP-1 receptor (Homo sapiens, UniProt P43220); assay: cAMP production assay, activation of GLP-1R (GloSensor HEK293 cells); type: cell-based; conditions: result in words, EC50 values only in figures
Description: Cell medium was 0.22 μm-filtered DMEM supplemented with 10% (v/v) FBS (referred to as GS media) and penicillin/streptomycin.

GIP receptor = target: T1, GIP receptor (Homo sapiens, UniProt P48546); assay: cAMP production assay, activation of GIPR (HEK 293 GS cells stably expressing GIPR); conditions: result in words, EC50 values only in figures
T1 sequence (P48546 22-466): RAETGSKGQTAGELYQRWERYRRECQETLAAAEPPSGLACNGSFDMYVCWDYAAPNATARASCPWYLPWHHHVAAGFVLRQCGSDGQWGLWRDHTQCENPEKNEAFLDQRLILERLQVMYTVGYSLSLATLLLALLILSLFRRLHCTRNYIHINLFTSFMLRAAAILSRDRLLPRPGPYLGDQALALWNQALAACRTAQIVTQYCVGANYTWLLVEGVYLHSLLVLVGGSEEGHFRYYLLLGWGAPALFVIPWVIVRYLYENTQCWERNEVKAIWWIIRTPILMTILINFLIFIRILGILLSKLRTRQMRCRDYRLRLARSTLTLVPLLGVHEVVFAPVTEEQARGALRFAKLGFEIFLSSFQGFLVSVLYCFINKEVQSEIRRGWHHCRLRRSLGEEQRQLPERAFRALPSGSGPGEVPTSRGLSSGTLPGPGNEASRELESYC

[1] = degraded by peptidases; cited from earlier work

Chain of GLP-1 receptor (P43220 24-463): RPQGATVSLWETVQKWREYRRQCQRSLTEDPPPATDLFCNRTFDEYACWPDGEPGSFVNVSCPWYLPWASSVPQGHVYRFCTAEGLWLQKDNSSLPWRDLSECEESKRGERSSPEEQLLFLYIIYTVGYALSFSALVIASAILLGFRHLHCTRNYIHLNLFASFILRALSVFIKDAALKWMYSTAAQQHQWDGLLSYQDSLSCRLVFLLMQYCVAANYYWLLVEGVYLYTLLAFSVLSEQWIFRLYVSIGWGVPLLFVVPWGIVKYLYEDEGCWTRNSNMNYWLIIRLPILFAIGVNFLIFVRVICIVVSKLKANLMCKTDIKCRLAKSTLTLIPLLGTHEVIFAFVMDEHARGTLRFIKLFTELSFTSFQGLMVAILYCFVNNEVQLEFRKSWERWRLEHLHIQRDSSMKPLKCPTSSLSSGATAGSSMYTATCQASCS

## GIP (1-30): amidated truncated form of glucose-dependent insulinotropic polypeptide, YAEGTFISDY SIAMDKIHQQ DEVNWLLAQK-NH2
GLP-1 receptor
  activation of the GLP-1 receptor (agonist activity / potency): does not activate the GLP-1 receptor

## GLP-1 16 B4 T2-OMe: GLP-1 with position 16 B4 T2 side chain, OMe variant of bisphenol (HAEGTFTSDK(B4 T2‑OMe)SSYLEGQAAKEFIAWLVKGRG; reading uncertain)
GIP receptor
  activation of the GIP receptor (agonist activity / potency): greater activity than other tested appendages

## GLP-1: glucagon-like peptide-1, native hormone, HAEGTFTSDVSSYLEGQAAKEFIAWLVKGRG
[1]
  half-life in vivo: < 2 min
GIP receptor
  activation of the GIP receptor (agonist activity / potency): does not activate the GIP receptor; also recorded: no effect on the GIP receptor; also recorded: does not activate the GIPR
GIP receptor; listed as GLP-1*
  activation of the GIP receptor (agonist activity / potency): acts as an agonist; also recorded: agonists of both GLP-1 receptor and GIP receptor; also recorded: greater activity than other tested appendages

## tirzepatide
GIP receptor
  activation of the GIP receptor (agonist activity / potency): activation of the GIP receptor
GIP receptor; listed as TZP
  activation of the GIP receptor (agonist activity / potency): dual GLP-1R/GIPR
GLP-1 receptor
  activation of the GLP-1 receptor (agonist activity / potency): activation of the GLP-1 receptor
GLP-1 receptor; listed as TZP
  activation of the GLP-1 receptor (agonist activity / potency): dual GLP-1R/GIPR
